{"source": "the supplement of paper PMC6755084", "parents": {"B1": {"name": "minF1; a variant is named by its letters at N, in order (parent)", "chain": "GAGACCGCAACTGAAAAGTTGTTNNNNAANNNNNGGNTNAATTTCTGCACGTAGAAGCAAAAGGC"}}}
{"variants_of": "B1", "experiment": "fraction ligated after 30 min (ligated reads / total reads); higher = more ligase activity", "settings": "with F1*subA RNA substrate (template-directed ligation), 42 °C", "procedure,_shortened": "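Templates from an oligo pool encoding minimized ligase ribozyme variants were amplified by PCR, transcribed with T7, and purified on gels. Gel electrophoresis separated ligated from unligated RNAs, which were then reverse transcribed using barcoded primers and sequenced on a MiSeq, keeping core bases with quality ≥30. For each variant, fraction ligated equals ligated reads divided by total reads.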"}
{"variant": "ACAGATGGAGT", "fraction ligated": 0.00252}
{"variant": "ATAGATGGAGT G35T", "fraction ligated": 0.00557}
{"variant": "ACAGTGGATGT", "fraction ligated": 0.00954}
{"variant": "TCAGATGGAGT T23A G35T T38G A40T A41G", "fraction ligated": 0.000947}
{"variant": "ATAGATGTGTG", "fraction ligated": 0.00472}
{"variant": "ACGATGGATGT", "fraction ligated": 0.0146}
{"variant": "CAGATGATGTG T23A", "fraction ligated": 0.00284}
{"variant": "TCGATGGATGT A40G", "fraction ligated": 0.0635}
{"variant": "ATCAGGATGTG A28G", "fraction ligated": 0.00911}
{"variant": "TCAATGGAGTG T23A", "fraction ligated": 0.00168}
{"variant": "TCAGAGGATGT T23A A40G", "fraction ligated": 0.00415}
{"variant": "ATAGATGATGT A40G", "fraction ligated": 0.00341}
{"variant": "TCAGATGGGTG T23A", "fraction ligated": 0.00356}
{"variant": "AAAAGGATGTG A29T", "fraction ligated": 0.00415}
{"variant": "ATCAATGGGTG", "fraction ligated": 0.0045}
{"variant": "ACAGATGTGTG", "fraction ligated": 0.00297}
{"variant": "ATCAAAGGTGT A28G", "fraction ligated": 0.00198}
{"variant": "ATCAAAGATGT A28G", "fraction ligated": 0.00546}
{"variant": "CAGAGGATGTG A29T", "fraction ligated": 0.00872}
{"variant": "ATCAATGGTGT A28G", "fraction ligated": 0.00146}
{"variant": "CAGATGGATTG T23A", "fraction ligated": 0.00704}
{"variant": "ATCAAATGGGT A28G G35A", "fraction ligated": 0.00387}
{"variant": "TCAGATGGTTG T23A", "fraction ligated": 0.00182}
{"variant": "ATCGTGGATTG", "fraction ligated": 0.0062}
{"variant": "ATCGAGGAGTG", "fraction ligated": 0.00378}
{"variant": "ATCGAGGTGTG", "fraction ligated": 0.00503}
{"variant": "ATAGTGGTGTG", "fraction ligated": 0.0019}
{"variant": "ATGATGATGTG", "fraction ligated": 0.00356}
{"variant": "ATCATGATGTG", "fraction ligated": 0.00541}
{"variant": "ATAGATGGTTG", "fraction ligated": 0.00545}
{"variant": "ATAGATGGTGT", "fraction ligated": 0.00303}
{"variant": "ATCAAGGATGT A40G", "fraction ligated": 0.0124}
{"variant": "ATCGATGATTG", "fraction ligated": 0.00246}
{"variant": "TCGAGGATGTG T23A", "fraction ligated": 0}
{"variant": "ATCAATGGTGT A40G", "fraction ligated": 0.00841}
{"variant": "ATCAGGATGTG", "fraction ligated": 0.00723}
{"variant": "ATCATGGATGT A40G", "fraction ligated": 0.0479}
{"variant": "ATGATGGATGT", "fraction ligated": 0.00269}
{"variant": "ATCAAAGAGTG A28G", "fraction ligated": 0.00276}
{"variant": "ATCAATGGAGT G35T", "fraction ligated": 0.0137}
{"variant": "ATCGATGGTGT", "fraction ligated": 0.00463}
{"variant": "ATAGATGGAGT G35T A40G", "fraction ligated": 0.0113}
{"variant": "TAGATGGATGT T23A A40G", "fraction ligated": 0.00768}
{"variant": "TAGATGATGTG T23A", "fraction ligated": 0.00371}
{"variant": "ATAGTGGATGT", "fraction ligated": 0.0055}
{"variant": "TCGATGGAGTG", "fraction ligated": 0.00518}
{"variant": "ACAATGGATTG", "fraction ligated": 0.0118}
{"variant": "TAAAGGATGTG A29T", "fraction ligated": 0.00359}
{"variant": "TCAATGGATGT T23A A40G", "fraction ligated": 0.00963}
{"variant": "TAGATGGATGT T23A", "fraction ligated": 0.00257}
{"variant": "ATCAATGGTTG A28G", "fraction ligated": 0.00263}
{"variant": "AGAAGGATGTG T23A A29T", "fraction ligated": 0.00429}
{"variant": "TCAGAGGATGT", "fraction ligated": 0.00375}
{"variant": "TCAGAGGAGTG T23A", "fraction ligated": 0}
{"variant": "ATCAAATGTGT A28G", "fraction ligated": 0.00203}
{"variant": "AAGATGGATGT A40G", "fraction ligated": 0.00604}
{"variant": "ATCATGGATTG", "fraction ligated": 0.00725}
{"variant": "TCAGAGATGTG T23A", "fraction ligated": 0.00422}
{"variant": "TCAATGATGTG T23A", "fraction ligated": 0.00128}
{"variant": "TCAGTGATGTG T23A", "fraction ligated": 0.00342}
{"variant": "ATAGAGGATTG", "fraction ligated": 0.00226}
{"variant": "ATAGATGGAGT", "fraction ligated": 0.00474}
{"variant": "ACAGATGGTGT A40G", "fraction ligated": 0.00805}
{"variant": "ATCAATGGAGT A28G G35T T38G A40T A41G", "fraction ligated": 0.00208}
{"variant": "ACAGTGGATGT A40G", "fraction ligated": 0.017}
{"variant": "TCAGAGGATGT A40G", "fraction ligated": 0.00564}
{"variant": "ACAGTGGATTG", "fraction ligated": 0.013}
{"variant": "ATCAAATAGTG A28G", "fraction ligated": 0.00491}
{"variant": "ATCAAAGGAGT A28G G35T", "fraction ligated": 0.00323}
{"variant": "ACAGATGGAGT G35T T38G A40T", "fraction ligated": 0.00236}
{"variant": "ATCAAGATGTG", "fraction ligated": 0.00503}
{"variant": "ACAGATGGAGT G35T", "fraction ligated": 0.014}
{"variant": "ACGAGGATGTG", "fraction ligated": 0.00409}
{"variant": "ATCAATGATGT A40G", "fraction ligated": 0.0188}
{"variant": "TAGAGGATGTG T23A A29T", "fraction ligated": 0.00989}
{"variant": "ATAGATGATTG", "fraction ligated": 0.00301}
{"variant": "TCGATGATGTG T23A", "fraction ligated": 0.00559}
{"variant": "ATCAATGGGTG A28G", "fraction ligated": 0.00605}
{"variant": "TCAGATATGTG", "fraction ligated": 0.000901}
{"variant": "ATCAAGGAGTG A28G", "fraction ligated": 0.00604}
{"variant": "TCAGTGGATTG", "fraction ligated": 0.0102}
{"variant": "ACGAGGATGTG A29T", "fraction ligated": 0.0139}
{"variant": "ACAGAGGTGTG", "fraction ligated": 0.00336}
{"variant": "TCAGTGGTGTG", "fraction ligated": 0.00248}
{"variant": "ATCAATGGAGT A28G G35T", "fraction ligated": 0.0192}
{"variant": "ATCGATGTGTG", "fraction ligated": 0.00321}
{"variant": "TCAGTGGTGTG T23A", "fraction ligated": 0.00335}
{"variant": "AAGATGGATTG", "fraction ligated": 0.00494}
{"variant": "ATCAAAGGAGT A28G G35T T38G A40T", "fraction ligated": 0.00242}
{"variant": "TCGAGGATGTG", "fraction ligated": 0.00582}
{"variant": "ATGATGGTGTG", "fraction ligated": 0.00304}
{"variant": "TCAGGGATGTG T23A", "fraction ligated": 0.00448}
{"variant": "ACGATGGATGT A40G", "fraction ligated": 0.0424}
{"variant": "ATCAAGGATGT A28G A40G", "fraction ligated": 0.0268}
{"variant": "ATAGTGGAGTG", "fraction ligated": 0}
{"variant": "ATCAAGGATTG", "fraction ligated": 0.00347}
{"variant": "ATCAAAATGTG A28G", "fraction ligated": 0.00354}
{"variant": "ATCAATGGATG", "fraction ligated": 0.00435}
{"variant": "ATAGATGGAGT G35T T38G A40T", "fraction ligated": 0.000429}
{"variant": "AAGATGGATGT", "fraction ligated": 0.0029}
{"variant": "ATAGATGATGT", "fraction ligated": 0.000906}
{"variant": "ACAGATGGATG", "fraction ligated": 0.000541}
{"variant": "TAGATGGATGT", "fraction ligated": 0.00222}
{"variant": "ATAGATGGATG", "fraction ligated": 0.00358}
{"variant": "TCAGTGATGTG", "fraction ligated": 0.00229}
{"variant": "ACAATGGTGTG", "fraction ligated": 0.00249}
{"variant": "ACGATGGATTG", "fraction ligated": 0.0663}
{"variant": "ACAGATGGAGT G35T A40G", "fraction ligated": 0.0182}
{"variant": "TCGAGGATGTG A29T", "fraction ligated": 0.0105}
{"variant": "ATCAAAGGAGT A28G G35T A40G", "fraction ligated": 0.00529}
{"variant": "TCGATGATGTG", "fraction ligated": 0.00384}
{"variant": "ATCAAAGGAGT A28G G35T T38G A40T A41G", "fraction ligated": 0.00104}
{"variant": "TCGATGGATGT", "fraction ligated": 0.0171}
{"variant": "ATCAATGGATG A28G", "fraction ligated": 0.00279}
{"variant": "ATCAGGATGTG A29T", "fraction ligated": 0.0416}
{"variant": "ATCGTGGAGTG", "fraction ligated": 0.00282}
{"variant": "ATAGATGGGTG", "fraction ligated": 0.00409}
{"variant": "TCAGGGATGTG T23A A29T", "fraction ligated": 0.0174}
{"variant": "ACAGAGGAGTG", "fraction ligated": 0.00131}
{"variant": "ATCAAGATGTG A28G", "fraction ligated": 0.00558}
{"variant": "ATAGATGGAGT G35T T38G A40T A41G", "fraction ligated": 0.00159}
{"variant": "TCAGATGAGTG T23A", "fraction ligated": 0.00316}
{"variant": "TCAGATGATGT A40G", "fraction ligated": 0.011}
{"variant": "TCAGATGGTTG", "fraction ligated": 0.00217}
{"variant": "ATCAAATGTTG A28G", "fraction ligated": 0.00332}
{"variant": "ATAGGGATGTG A29T", "fraction ligated": 0.0314}
{"variant": "TCAGATGATGT T23A", "fraction ligated": 0.00365}
{"variant": "TCAGATGGAGT T23A G35T T38G A40T", "fraction ligated": 0.00248}
{"variant": "TCAATGGATTG", "fraction ligated": 0.0203}
{"variant": "CAGAGGATGTG T23A A29T", "fraction ligated": 0.00891}
{"variant": "ATCAAAGGATG A28G", "fraction ligated": 0.0078}
{"variant": "ATCAATGGTGT", "fraction ligated": 0.00377}
{"variant": "ATCAATATGTG A28G", "fraction ligated": 0.00244}
{"variant": "CAGATGGAGTG T23A", "fraction ligated": 0.00336}
{"variant": "TCAGATGATTG T23A", "fraction ligated": 0.00216}
{"variant": "TCAGATGGTGT", "fraction ligated": 0.00178}
{"variant": "TCAGATGGAGT T23A A40G", "fraction ligated": 0.0153}
{"variant": "ATCATGGAGTG", "fraction ligated": 0.00635}
{"variant": "ATCGATGATGT", "fraction ligated": 0.00439}
{"variant": "ATCAAGGATGT", "fraction ligated": 0.00413}
{"variant": "ATCAGGATGTG A28G A29T", "fraction ligated": 0.00511}
{"variant": "ATCGTGATGTG", "fraction ligated": 0.00711}
{"variant": "ATCATGGTGTG A28G", "fraction ligated": 0.00296}
{"variant": "TCAATGGATGT T23A", "fraction ligated": 0.00522}
{"variant": "ACAGATGATGT A40G", "fraction ligated": 0.00654}
{"variant": "ACAGATGATGT", "fraction ligated": 0.00327}
{"variant": "TCAGATGATTG", "fraction ligated": 0.00341}
{"variant": "ACAGTGATGTG", "fraction ligated": 0.00182}
